116 sequences from the supplement of paper PMC10724198 can be followed below.

± gives the standard deviation of the averaged measurements.
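Also: PSI is a weighted mean of sequencing reads over stability bins, variants kept only with over 10 reads, mCherry proximal and sfGFP distal, peptide attached via GGGS linker.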

For this data set, the system named is Saccharomyces cerevisiae. Nature of the data set: protein stability index of tFT-peptide fusion (C-terminal peptide) (PSI (0-1 scale)); higher = more stable (slower turnover). The conditions noted are these: genetic background: wild type; temperature: 30 C.
SSLWGAGGRGID: the protein stability index is 0.706 ± 0.011.
As for SSMCPDGGYQWV, the protein stability index was 0.686 ± 0.0074.
In the case of SSPPPSAHPLPS it was 0.6933 ± 0.0055.
As to SSPPSARSPPPP, the protein stability index worked out at 0.717 ± 0.076.
In the case of SSPPSPPPLTLY it was 0.687 ± 0.02.
As for SSPRQITTLTRL, the protein stability index turned out to be 0.757 ± 0.037.
In the case of SSPTRARLFFPH it was 0.659 ± 0.039; in that of SSPVDPLRPPAP, 0.704 ± 0.013; in that of SSRRQSSRPPHS, 0.648 ± 0.025.
Next, SSRTPPRFYSLP: 0.708 ± 0.0074.
Next, SSSDPYLLFCHS: 0.741 ± 0.37; SSSLPPSHFYPP: 0.718 ± 0.064; SSSRCRVGHAGW: 0.67 ± 0.0096.
SSSTPGRATRVS registered a protein stability index of 0.652 ± 0.034.
In the case of SSSVFFFLRRFR it was 0.698 ± 0.025; in that of SSSVPHFIFLPR, 0.656 ± 0.028.
Next, SSTGRGRGCQEM: 0.684 ± 0.0086; SSVFPSSPAFLP: 0.691 ± 0.0099; STCSTSQPPSPS: 0.663 ± 0.069.
In the case of STFRICTGVPRP it was 0.729 ± 0.0093; in that of STGLRISPPAYM, 0.677 ± 0.0069; in that of STIIYFLTYSDK, 0.634 ± 0.063.
For the sequence STKGAIKVEECI, the protein stability index was found to be 0.636 ± 0.023.
Take STLCVRLITSAR: the protein stability index was 0.649 ± 0.077.
In turn, STNNSGRPMSFL showed a protein stability index of 0.664 ± 0.045.
STPPAPPPLLPP showed a protein stability index of 0.736 ± 0.031.
Next, STSYLKLKYSIY: 0.498 ± 0.038; STVESAWPAGPA: 0.712 ± 0.0016.
Next, STVSLASPARSP: 0.683 ± 0.048; SVGSLLAFLHRR: 0.68336 ± 0.00055; SVIGLNLVGMGW: 0.641 ± 0.046.
In the case of SVIYQMMGRIVR it was 0.723 ± 0.07; in that of SVLRGLCFDGYR, 0.7252 ± 0.0064.
Consider SVLSPTLESLIF, for which the protein stability index stood at 0.681 ± 0.032.
In the case of SVNRRTVYRKNK it was 0.764 ± 0.17; in that of SVPLTPKTPPPP, 0.701 ± 0.049; in that of SVPSRSSAALCS, 0.714 ± 0.067.
In the case of SVPYALPTTPPR it was 0.676 ± 0.045; in that of SVRLVGHGARDR, 0.699 ± 0.18; in that of SVSPRPSPPAVP, 0.708 ± 0.13.
In the case of SVVLIQVVSKPT it was 0.58 ± 0.015.
Turning to SVVVIGSSYASG, the protein stability index is 0.5899 ± 0.0023.
In the case of SVVVVAKAKAGR it was 0.635 ± 0.047.
As for SVWFSFVKVRGG, the protein stability index was found to be 0.612 ± 0.0037.
Next, SVYFSLITRPYY: 0.667 ± 0.012; SWCQFAVGGIIH: 0.664 ± 0.013.
For the sequence SWECRGMGVCGG, the protein stability index worked out at 0.721 ± 0.02.
Next, SWFYTQSEKTLS: 0.7798 ± 0.005; SWGHTGTLRNDI: 0.747 ± 0.035.
SWGLSVSSCFVW showed a protein stability index of 0.578 ± 0.0066.
For the sequence SWICSTRSYQRE, the protein stability index stood at 0.702 ± 0.044.
Next, SWMDRGGSYSGI: 0.684 ± 0.12; SWTCSPLKSFHS: 0.734 ± 0.049.
On to SWVELCSQEVVI, for which the protein stability index was determined as 0.603 ± 0.01.
In the case of SWVVSLGFAIGL it was 0.693 ± 0.055; in that of SWYAGGRRWIVV, 0.608 ± 0.022; in that of SYGSLFCSHLDG, 0.6828 ± 0.0014.
Next, SYGWSQGPLSCW: 0.767 ± 0.01; SYTIPPSTYLPS: 0.704 ± 0.043.
In the case of SYVYETERNEST it was 0.715 ± 0.019.
TACPPSTPSTAF displayed a protein stability index of 0.689 ± 0.033.
Next, TAGPHPLSLPPP: 0.709 ± 0.033; TALFRLRRPRLR: 0.801 ± 0.021.
The sequence TAPRERFGKDPR yielded a protein stability index of 0.649 ± 0.056.
In the case of TARAGRTASAPR it was 0.7084 ± 0.0025; in that of TARVPARLTHAS, 0.683 ± 0.029.
In the case of TAYRGCSDRNAG it was 0.603 ± 0.042; in that of TCRGRLCVCLFC, 0.505 ± 0.015.
Next, TDPLGDDSSESE: 0.672 ± 0.048; TEHRVGEKEPWH: 0.681 ± 0.018.
On to TEKQSGRINTAI, for which the protein stability index was 0.653 ± 0.034.
In the case of TERPMAVESRAW it was 0.686 ± 0.012; in that of TEVSDVSWSEVW, 0.696 ± 0.025; in that of TFDNEYKRSRKV, 0.678 ± 0.033.
In the case of TFFGEDVGVVVD it was 0.69681 ± 0.00058.
Next, TFHTSSSPAHLP: 0.663 ± 0.038; TFSVNLGAASAK: 0.662 ± 0.042.
TGGKGNKNKIKE displayed a protein stability index of 0.692 ± 0.031.
Next, TGLMAPEGGGQA: 0.719 ± 0.076; TGRGVFCMSIHM: 0.643 ± 0.045.
Turning to TGRQQTCRIIIE, the protein stability index was 0.6873 ± 0.00092.
TGRRLVLGDRCM returned a protein stability index of 0.72 ± 0.011.
In turn, TGSRISHSPLYP yielded a protein stability index of 0.671 ± 0.02.
Next, TGTPGAVRRGGA: 0.727 ± 0.1; TGVGRLGYRFVV: 0.588 ± 0.0064.
In the case of TGWSRTTVGFAT, the protein stability index turned out to be 0.711 ± 0.046.
In the case of THMSPLPTSERW it was 0.678 ± 0.085; in that of THPPPPPPACSV, 0.632 ± 0.037; in that of THRNEKQGTVTY, 0.651 ± 0.016.
In the case of THSLSCPPRNPP it was 0.647 ± 0.07; in that of THVDLGVLVSPE, 0.6698 ± 0.0017; in that of THVKVNNQARGR, 0.722 ± 0.014.
Next, TIATASWILRRL: 0.624 ± 0.0045.
The sequence TIRHKALTRKSR gave a protein stability index of 0.713 ± 0.012.
As for TKIENYKRKRAK, the protein stability index turned out to be 0.708 ± 0.1.
Regarding TKIKKKTQEGSR, the protein stability index was 0.698 ± 0.029.
Next, TKKRKRKKKGNK: 0.715 ± 0.05.
In turn, TKQIKKNKHKRA gave a protein stability index of 0.727 ± 0.12.
As to TLAPSKHGSNRT, the protein stability index was determined as 0.666 ± 0.049.
Next, TLCCLFPIPSSS: 0.699 ± 0.08; TLCFSFPVPGFL: 0.723 ± 0.1; TLCTSPWGVVAV: 0.511 ± 0.024.
Next, TLQLFPRIPSFQ: 0.707 ± 0.0019; TLRLPLHLLRPT: 0.642 ± 0.021; TLRPPPPPAFPP: 0.719 ± 0.084.
Next, TLSFPFRPLRLA: 0.48 ± 0.033; TLSYSPPCSPRH: 0.742 ± 0.03; TLVPAYRCEWCA: 0.736 ± 0.046.
For TLYEVHQSENSR, the protein stability index was 0.666 ± 0.016.
Next, TMLPQGFSGNLH: 0.6891 ± 0.0025.
In the case of TMQDSNKSQGCA it was 0.706 ± 0.019.
Next, TMSPPSTSGGMG: 0.6855 ± 0.0042; TNMTRWRIRVRD: 0.676 ± 0.053.
On to TNNTKRDKKRIQ, for which the protein stability index turned out to be 0.703 ± 0.16.
Next, TPHNQPKPTPPC: 0.698 ± 0.032; TPHRVGRAAATR: 0.675 ± 0.02.
